Experimental data from PMC10485164, “Sequence-specific targeting of Caenorhabditis elegans C-Ala to the D-loop of tRNAAla”.
Positions count from the first letter of the chain named.

Assays:
[1] = tested on: Ce-C-Alam (C-Ala of mitochondrial AlaRS) (Caenorhabditis elegans); test: EMSA; conditions: 5 mM Mg2+; EMSA: 20 mM Hepes pH 7.5, 20 mM KCl, 5 mM MgCl2, 2 mM DTT, 10 min on ice, 0.1 uM ligand; 5% native PAGE in 0.5x TBE at 4 C; protein 0.125-32 uM
[2] = tested on: CeAlaRSm (mitochondrial AlaRS) (Caenorhabditis elegans); test: EMSA; conditions: 5 mM Mg2+; EMSA: 20 mM Hepes pH 7.5, 20 mM KCl, 5 mM MgCl2, 2 mM DTT, 10 min on ice, 0.1 uM ligand; 5% native PAGE in 0.5x TBE at 4 C; protein 0.125-32 uM
[3] = tested on: CeAlaRSm(ΔC) (Caenorhabditis elegans); test: EMSA; conditions: 5 mM Mg2+; EMSA: 20 mM Hepes pH 7.5, 20 mM KCl, 5 mM MgCl2, 2 mM DTT, 10 min on ice, 0.1 uM ligand; 5% native PAGE in 0.5x TBE at 4 C; protein 0.125-32 uM
[4] = biological target: T1, Ce-C-Alac (C-Ala of cytoplasmic AlaRS) (Caenorhabditis elegans, UniProt O01541 757-968); test: EMSA; 5 mM Mg2+; EMSA: 20 mM Hepes pH 7.5, 20 mM KCl, 5 mM MgCl2, 2 mM DTT, 10 min on ice, 0.1 uM ligand; 5% native PAGE in 0.5x TBE at 4 C; protein 0.125-32 uM; conditions: protein: recombinant; tags: His6 (C-terminal, pET21b); label: 5'-32P; two hairpins
T1 sequence: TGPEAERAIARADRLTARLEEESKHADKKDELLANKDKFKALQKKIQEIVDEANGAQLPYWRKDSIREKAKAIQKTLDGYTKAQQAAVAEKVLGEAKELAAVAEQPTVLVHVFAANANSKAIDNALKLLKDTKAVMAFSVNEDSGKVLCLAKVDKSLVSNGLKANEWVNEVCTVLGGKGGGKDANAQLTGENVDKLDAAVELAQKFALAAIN

[5] = biological target: T1, Ce-C-Alac (C-Ala of cytoplasmic AlaRS); test: as above; conditions: protein: recombinant, tags: His6 (C-terminal, pET21b), label: 5'-32P
[6] = biological target: T2, Ce-C-Alac helical subdomain (HS) (Caenorhabditis elegans, UniProt O01541 757-858); test: as above; conditions: protein: recombinant, tags: His6 (C-terminal, pET21b), label: 5'-32P
T2 sequence: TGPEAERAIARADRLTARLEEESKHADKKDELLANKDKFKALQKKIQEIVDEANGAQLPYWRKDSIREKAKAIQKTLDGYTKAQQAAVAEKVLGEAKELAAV

[7] = biological target: T3, Ce-C-Alac globular subdomain (GS) (Caenorhabditis elegans, UniProt O01541 859-968); test: as above; conditions: protein: recombinant, tags: His6 (C-terminal, pET21b), label: 5'-32P
T3 sequence: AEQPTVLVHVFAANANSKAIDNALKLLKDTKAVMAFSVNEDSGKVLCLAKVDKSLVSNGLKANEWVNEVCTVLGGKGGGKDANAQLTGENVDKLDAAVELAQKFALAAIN

GGGAUUUUAGUUUAAUAAAAAUAUAUGUUUUGCAUACAUAAGAUAAUAAUUCUACCA [CetRNAmAla]
Kd [1]: 200 nM | Kd [2]: 200 nM | Kd [3]: > 32000 nM

GGGGGUAUAGCUCAGUGGUAGAGCGCUCCCUUAGCAUGGGAGAGGGCUGGGGUUCAAUUCCCCAUACCUCCACCA [CetRNAnAla]
binding signal (fold lower affinity than CetRNAmAla) [1]: 7.5

GGGAUUUUAGUUUAGUGGUAAAAUAUAUGUUUUGCAUACAUAAGAUAAUAAUUCUACCA [DLnAla mut (CetRNAmAla with D-loop of CetRNAnAla)]
Kd [1]: 4000 nM | Kd [2]: 1000 nM | Kd [3]: > 32000 nM

GCUCCCUGGUAGAGCGCUCCCUUAGCAUGGGAG (structured_RNA) [biloop AG mutant (A14G15 to CC)]
binding signal [4]: 4 fold lower affinity than WT biloop

GCUCAGUGGUAGAGCGCUCCCUUAGCAUGGGAG (structured_RNA) [biloop (D-arm-anticodon arm of CetRNAnAla)]
Kd ([5]; two hairpins): 2000 nM | Kd ([6]; two hairpins): 6000 ± 400 nM | Kd ([7]; two hairpins): 2000 ± 400 nM

B1: CetRNAnAla (structured_RNA)
RNA: GGGGGUAUAGCUCAGUGGUAGAGCGCUCCCUUAGCAUGGGAGAGGGCUGGGGUUCAAUUCCCCAUACCUCCACCA
Kd ([5]; tRNA cloverleaf): 800 nM | Kd ([6]; tRNA cloverleaf): 2000 nM | Kd ([7]; tRNA cloverleaf): 500 nM

B2: CetRNAnAla A14G15C48 mutant (structured_RNA)
RNA: B1 RNA with A14G, G15A, C47U
Kd ([5]; tRNA): 2000 nM

B3: CetRNAnAla A14G15 mutant (to GA) (structured_RNA)
RNA: B1 RNA with A14G, G15A
Kd ([5]; tRNA, conformation disrupted): 10000 nM

B4: CetRNAnAla G18G19C56 mutant (structured_RNA)
RNA: B1 RNA with G17A, G18A, C55U
Kd ([5]; tRNA): 8000 nM

GGGGGUAUGGGGUUCAAUUCCCCAUACCUCCACCA (structured_RNA) [minihelix (T-arm-acceptor stem of CetRNAnAla)]
Kd ([6]; hairpin): 11000 ± 100 nM | Kd ([7]; hairpin): 9000 ± 200 nM

B5: DLmAla mut (CetRNAnAla with D-loop of CetRNAmAla) (structured_RNA)
RNA: GGGGGUAUAGCUCAAUAAGAGCGCUCCCUUAGCAUGGGAGAGGGCUGGGGUUCAAUUCCCCAUACCUCCACCA
Kd ([5]; tRNA): 6500 nM

B6: CetRNAmAla (structured_RNA)
RNA: GGGAUUUUAGUUUAAUAAAAAUAUAUGUUUUGCAUACAUAAGAUAAUAAUUCUACCA
Kd ([5]; tRNA): 4500 nM

B7: SctRNAnGly (structured_RNA)
RNA: GCGCAAGUGGUUUAGUGGUAAAAUCCAACGUUGCCAUCGUUGGGCCCCCGGUUCGAUUCCGGGCUUGCGCACCA
Kd ([5]; tRNA cloverleaf): 900 nM
